From patent publication US7125847
Values joined by “and” are separate entries in the source; they are usually repeats but may differ in a detail not shown here. Identical values can stand only once. Like-named read-outs stand apart in the source and are kept apart here. Where no end group is shown, it is not given here.

Tests used:
[1] = target: stretch-activated channels (SACs) of activated adult rat astrocytes (rat); experiment: cell-based or functional assay
[2] = target: stretch-activated channels (SACs) of activated adult rat astrocytes (rat)
[3] = target: stretch-activated channels (SACs) of activated adult rat astrocytes (rat); remark: listed apart in the source

B1: GsMTx-4 purified from Grammostola spatulata venom (peptide)
peptide: GCLEFWWKCNPNDDKCCRPKLKCSKLFKLCNFSSG-NH2
modifications: disulfide (positions not given here); not fully specified (bridges); also: 3 disulfides (ICK motif), pairing not given here
[1]
  average SAC current after GsMTx-4 washout: 2.28 pA
  average SAC current during GsMTx-4 application: 0.17 pA
  mean SAC current before GsMTx-4 application: 2.04 pA
  ratio of blocked to unblocked current I/I0: 0.083
  time constant of recovery of SAC current on washout: 4.7 s
[2]
  Kd: 631 nM and 415 nM
  koff: 0.21 s⁻¹
  kon: 330000 M⁻¹ s⁻¹
[3]
  kon: 340000 M⁻¹ s⁻¹
